This assay addresses mouse RXRα (mRXRα) (mouse) (UniProt P28700). In words: cell-based or functional assay.

“GGF (human glucocorticoid receptor amino terminus and DBD linked to the carboxyl terminus (LBD) of FXR) (from UniProt P04150 1-509; Q62735 188-469)” yielded a GGF-dependent transcriptional induction by farnesol (40 µM), FIG. 16D of 2 fold.

Values taken from patent US8637237.
